Data on two substances can be found in paper PMC13137875.

Assay [1] deals with G-actin (Oryctolagus cuniculus) (UniProt P68135). The following applies: cited from earlier work.
In assay [2] the target is Rabbit skeletal muscle actin (G-actin) (rabbit) (UniProt P68135). Put plainly: SEC-SAXS. (In general: SEC sorts molecules by how far they enter the pores of the column.)

Values joined by “and” are separate entries in the source; they are usually repeats but may differ in a detail not shown here. Equal entries are not always repeated.

What is called Kd is a measure of binding affinity in units of concentration. In the case of Sca2 (from UniProt Q92JF7), the equilibrium dissociation constant (Kd) in assay [1] is 20 nM and 200 nM. A word on the stoichiometry N: it is a count of units in the complex or per binding partner. The substance “R. bellii MBP-Sca2/6 (maltose-binding protein tagged passenger domain of Sca2/6) (domain or fragment)” showed a stoichiometry N in assay [2] of 1.
